Entries after “also recorded” stand apart in the source; their conditions may differ. Bridge positions count the residues as written; N and C are the ends. Square brackets hold non-standard residues; d marks the D form. 2Nal = N[C@@H](Cc1ccc2ccccc2c1)C(=O)O; R8 = C=CCCCCCC[C@@](C)(N)C(=O)O; S5 = C=CCCC[C@](C)(N)C(=O)O
Biological target: T1, APC/C (Homo sapiens, UniProt Q9NYG5)
T1 construct: made in house; host or cells: SF9 insect cells (baculovirus)
Test: In vitro APC/C ubiquitination assay driven by the E2 enzyme UBE2C, fluorophore-labelled securin substrate
Format: biochemical
Conditions: 100 μM, UBE2C, reaction time 45 min; for inhibition of APC/C activity in vitro compared with TAME: 3 independent assays
Protocol: Proteins were separated by SDS-PAGE electrophoresis using precast Bolt 4-12% Bis-Tris Plus protein gels (Thermo Fisher Scientific) and Criterion XT Bis-Tris Midi Protein Gels (Bio-Rad). In different experiments, various conditions were used: in vitro APC/C ubiquitination assays—165 V, 40 min, SDS-MES running buffer (50 mM MES, 50 mM Tris base, 0.1% SDS, 1 mM EDTA, pH 7.3; Thermo Fisher Scientific); in vitro APC/C ubiquitination assays determining KM—165V, 1 h, SDS-MOPS running buffer (50 mM MOPS, 50 mM Tris base, 0.1% SDS, 1 mM EDTA, pH 7.7; Thermo Fisher Scientific); pull-down binding assay—165 V, 35 min, SDS-MES running buffer.
APC/C-dependent ubiquitination reactions were performed at 30° C. in 30 mM HEPES pH 7.4, 175 mM NaCl, 8 mM MgCl2, 0.05% Tween-20, 1 mM DTT and 5% glycerol and contained 20 nM recombinant APC/C (note, for testing the first generation of inhibitors, APC/C and Cdc20 immunoprecipitated from mitotic HeLa K cells was used), 340 nM Cdc20, 46 nM GST-UBA1, 340 nM UBE2C (alternatively 400 nM UBE2D1, 280 nM UBE2S), 21 μM His6-ubiquitin or if it is indicated 21 μM methylated-ubiquitin (BostonBiochem), 2.6 mM ATP, 10 mM phosphocreatine and 11 μM creatine kinase. As substrates, 35 nM fluorophore-labeled ubiquitin-cyclin B and 50 nM fluorophore-labeled securin were standardly used (fluorophore IRDye 800CW (LI-COR) was used for labelling). In case of KM and kcat determination, 50, 100, 250, 500, 750, 1000, 1250, 2500 and 5000 nM fluorophore-labelled securin was used. The reaction was done in the volume of 15 μl, it was quenched after the indicated time with LDS sample buffer (Thermo Fisher Scientific) supplemented with 100 mM DTT and subjected to SDS-PAGE. Detection of fluorescently labelled substrates was done by quantitative near-infrared scanning system Odyssey.

Row | inhibition of APC/C activity in vitro (ubiquitinated securin) | Substance | inhibition of APC/C activity in vitro compared with TAME
1 | the most potent | Ac-cyclo(3,13)-THCDDPETWRWNCQRV-NH2 (Ac-THCDDPETWRWNCQRV-NH2; disulfide 3-13; SMILES CC(=O)N[C@H](C(=O)N[C@@H](Cc1c[nH]cn1)C(=O)N[C@H]1CSSC[C@@H](C(=O)N[C@@H](CCC(N)=O)C(=O)N[C@@H](CCCNC(=N)N)C(=O)N[C@H](C(N)=O)C(C)C)NC(=O)[C@H](CC(N)=O)NC(=O)[C@H](Cc2c[nH]c3ccccc23)NC(=O)[C@H](CCCNC(=N)N)NC(=O)[C@H](Cc2c[nH]c3ccccc23)NC(=O)[C@H]([C@@H](C)O)NC(=O)[C@H](CCC(=O)O)NC(=O)[C@@H]2CCCN2C(=O)[C@H](CC(=O)O)NC(=O)[C@H](CC(=O)O)NC1=O)[C@@H](C)O) [G1-7] | 
2 |  | Ac-cyclo(4,11)-EWWZKLEIQRXRRA-NH2 (Ac-EWW[R8]KLEIQR[S5]RRA-NH2; staple 4-11; SMILES CC[C@H](C)[C@@H]1NC(=O)[C@H](CCC(=O)O)NC(=O)[C@H](CC(C)C)NC(=O)[C@H](CCCCN)NC(=O)[C@](C)(NC(=O)[C@H](Cc2c[nH]c3ccccc23)NC(=O)[C@H](Cc2c[nH]c3ccccc23)NC(=O)[C@H](CCC(=O)O)NC(C)=O)CCCCCCC=CCCC[C@@](C)(C(=O)N[C@@H](CCCNC(=N)N)C(=O)N[C@@H](CCCNC(=N)N)C(=O)N[C@@H](C)C(N)=O)NC(=O)[C@H](CCCNC(=N)N)NC(=O)[C@H](CCC(N)=O)NC1=O) [G3-4] | inhibit APC/C in vitro more efficiently than TAME
3 |  | Ac-cyclo(5,9)-RWPQXIKDXQVRWW-NH2 (Ac-RWPQ[S5]IKD[S5]QVRWW-NH2; staple 5-9; SMILES CC[C@H](C)[C@@H]1NC(=O)[C@@](C)(NC(=O)[C@H](CCC(N)=O)NC(=O)[C@@H]2CCCN2C(=O)[C@H](Cc2c[nH]c3ccccc23)NC(=O)[C@H](CCCNC(=N)N)NC(C)=O)CCCC=CCCC[C@@](C)(C(=O)N[C@@H](CCC(N)=O)C(=O)N[C@H](C(=O)N[C@@H](CCCNC(=N)N)C(=O)N[C@@H](Cc2c[nH]c3ccccc23)C(=O)N[C@@H](Cc2c[nH]c3ccccc23)C(N)=O)C(C)C)NC(=O)[C@H](CC(=O)O)NC(=O)[C@H](CCCCN)NC1=O) [G3-3] | inhibit APC/C in vitro more efficiently than TAME
4 | the most potent | cyclo(1,14)-[L 2-NaI L W K l E W E K R K p P] (cyclo(L[2Nal]LWK[dL]EWEKRK[dP]P); SMILES CC(C)C[C@@H]1NC(=O)[C@H](Cc2ccc3ccccc3c2)NC(=O)[C@H](CC(C)C)NC(=O)[C@@H]2CCCN2C(=O)[C@H]2CCCN2C(=O)[C@H](CCCCN)NC(=O)[C@H](CCCNC(=N)N)NC(=O)[C@H](CCCCN)NC(=O)[C@H](CCC(=O)O)NC(=O)[C@H](Cc2c[nH]c3ccccc23)NC(=O)[C@H](CCC(=O)O)NC(=O)[C@@H](CC(C)C)NC(=O)[C@H](CCCCN)NC(=O)[C@H](Cc2c[nH]c3ccccc23)NC1=O) [G2-4] | 

Row | Substance | inhibition of APC/C activity in vitro (ubiquitinated securin) | inhibition of APC/C activity in vitro compared with TAME
5 | Ac-cyclo(2,11)-RCHWGPRTFWCR—NH2 (Ac-RCHWGPRTFWCR-NH2; disulfide 2-11; SMILES CC(=O)N[C@@H](CCCNC(=N)N)C(=O)N[C@H]1CSSC[C@@H](C(=O)N[C@@H](CCCNC(=N)N)C(N)=O)NC(=O)[C@H](Cc2c[nH]c3ccccc23)NC(=O)[C@H](Cc2ccccc2)NC(=O)[C@H]([C@@H](C)O)NC(=O)[C@H](CCCNC(=N)N)NC(=O)[C@@H]2CCCN2C(=O)CNC(=O)[C@H](Cc2c[nH]c3ccccc23)NC(=O)[C@H](Cc2c[nH]cn2)NC1=O) [G1-3] | the most potent molecule from items (b)-(e); also recorded: the most potent molecule from item (b) | 
